Measured values published in patent US20190194334A1.

Molecular target: cell surface (plasma membrane) nucleolin of human tumor cells (human) (UniProt P19338)
Test: flow cytometry of non-permeabilized MCF-7 cells, dot plot of side scatter against FITC fluorescence [B]

Sequence of UniProt P19338 (P19338 2-710 limits assumed): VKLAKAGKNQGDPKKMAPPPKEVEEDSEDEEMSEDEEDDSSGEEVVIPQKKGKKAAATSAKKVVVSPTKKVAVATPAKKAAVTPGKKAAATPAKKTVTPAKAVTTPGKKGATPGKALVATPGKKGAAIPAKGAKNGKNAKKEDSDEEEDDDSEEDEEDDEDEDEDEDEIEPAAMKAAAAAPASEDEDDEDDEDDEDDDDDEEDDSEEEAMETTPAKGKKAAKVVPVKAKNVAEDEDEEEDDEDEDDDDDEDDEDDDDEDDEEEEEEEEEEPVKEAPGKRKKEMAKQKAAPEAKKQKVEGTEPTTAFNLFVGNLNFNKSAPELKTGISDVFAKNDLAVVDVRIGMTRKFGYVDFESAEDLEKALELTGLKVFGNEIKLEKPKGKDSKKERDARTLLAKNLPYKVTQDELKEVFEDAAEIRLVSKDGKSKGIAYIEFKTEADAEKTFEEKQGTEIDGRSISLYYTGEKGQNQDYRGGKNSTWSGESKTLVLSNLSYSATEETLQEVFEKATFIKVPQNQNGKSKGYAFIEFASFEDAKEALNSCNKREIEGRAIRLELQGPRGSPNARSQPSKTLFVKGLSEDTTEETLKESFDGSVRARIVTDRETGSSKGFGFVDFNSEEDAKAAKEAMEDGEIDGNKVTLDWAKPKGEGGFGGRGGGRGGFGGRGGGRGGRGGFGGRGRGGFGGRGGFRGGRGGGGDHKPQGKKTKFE

- percent of cells in the FITC-positive gate: 1.5%
Substance: Control IgG-FITC (antibody)
